This data set deals with the molecule itself. Nature of the data set: SPR. On the technique in general: Surface plasmon resonance follows binding to a sensor surface in real time, without labels.

The record followed here is paper PMC3781949 (Molecular microbiology, 2011).

B1: Maf-His6, purified recombinant Maf (natural protein, B. subtilis, UniProt Q02169 1-189, looked up)
chain: MTKPLILASQSPRRKELLDLLQLPYSIIVSEVEEKLNRNFSPEENVQWLAKQKAKAVADLHPHAIVIGADTMVCLDGECLGKPQDQEEAASMLRRLSGRSHSVITAVSIQAENHSETFYDKTEVAFWSLSEEEIWTYIETKEPMDKAGAYGIQGRGALFVKKIDGDYYSVMGLPISKTMRALRHFDIRA
In the case of B1, the binding result is given as “binds”.
